The results in this text go back to patent US20220332804A1 (CSL INNOVATION, published 2022).

The target in one experiment is T1, human C2 E476A (human, UniProt P06681 21-752).
T1 sequence: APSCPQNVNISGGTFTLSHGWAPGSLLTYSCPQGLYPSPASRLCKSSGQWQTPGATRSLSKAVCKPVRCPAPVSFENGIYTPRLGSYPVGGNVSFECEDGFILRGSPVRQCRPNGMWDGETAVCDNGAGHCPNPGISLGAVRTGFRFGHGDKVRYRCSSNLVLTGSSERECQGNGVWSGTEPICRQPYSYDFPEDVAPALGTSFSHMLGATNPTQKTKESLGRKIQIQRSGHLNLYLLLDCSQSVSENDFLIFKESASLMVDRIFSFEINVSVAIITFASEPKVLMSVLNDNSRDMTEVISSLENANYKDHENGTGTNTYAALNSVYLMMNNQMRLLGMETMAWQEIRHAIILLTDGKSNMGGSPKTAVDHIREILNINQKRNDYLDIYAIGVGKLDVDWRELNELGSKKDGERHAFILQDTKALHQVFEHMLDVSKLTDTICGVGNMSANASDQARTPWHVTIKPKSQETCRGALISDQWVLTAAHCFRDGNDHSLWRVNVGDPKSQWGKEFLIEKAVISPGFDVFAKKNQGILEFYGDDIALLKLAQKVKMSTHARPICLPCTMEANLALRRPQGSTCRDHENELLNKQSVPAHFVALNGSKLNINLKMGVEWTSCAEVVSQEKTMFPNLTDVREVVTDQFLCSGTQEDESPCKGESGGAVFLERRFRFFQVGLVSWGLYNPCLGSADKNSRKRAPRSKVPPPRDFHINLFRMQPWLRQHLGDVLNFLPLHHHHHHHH
The experiment is described as follows: SPR, antibody captured, C2 as analyte.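 Also: biacore SPR at 37 °C, anti-C2 mAbs captured via goat anti-human IgG on CM5 chips, double-referenced sensorgrams fit to a 1:1 kinetic or steady-state model.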

For a further experiment, the target named is T2, human C2 Y328A (human, UniProt P06681 21-752).
T2 sequence: T1 sequence with Y308A, A456E
Description: SPR, antibody captured, C2 as analyte.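 Also: biacore SPR at 37 °C, anti-C2 mAbs captured via goat anti-human IgG on CM5 chips, double-referenced sensorgrams fit to a 1:1 kinetic or steady-state model.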

For the next experiment, the target named is T3, human C2 N621A (human, UniProt P06681 21-752).
T3 sequence: T1 sequence with A456E, N601A
Description: SPR, antibody captured, C2 as analyte.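 Also: biacore SPR at 37 °C, anti-C2 mAbs captured via goat anti-human IgG on CM5 chips, double-referenced sensorgrams fit to a 1:1 kinetic or steady-state model.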 Background: In SPR one partner is held on a chip, and binding of the other changes the refractive index at the surface.

A further experiment has as its target T4, human C2 T442A (human, UniProt P06681 21-752).
T4 sequence: T1 sequence with T422A, A456E
The experiment is described as follows: SPR; KD relative to WT C2.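 Also: biacore SPR at 37 °C, anti-C2 mAbs captured on an anti-human IgG chip, alanine or serine C2 surface mutants tested, KD from 1:1 fit compared with wild-type C2.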

Positions count from the first letter of the chain named.

B1: RF16-226 (antibody, human IgG4 S228P, lambda)
heavy: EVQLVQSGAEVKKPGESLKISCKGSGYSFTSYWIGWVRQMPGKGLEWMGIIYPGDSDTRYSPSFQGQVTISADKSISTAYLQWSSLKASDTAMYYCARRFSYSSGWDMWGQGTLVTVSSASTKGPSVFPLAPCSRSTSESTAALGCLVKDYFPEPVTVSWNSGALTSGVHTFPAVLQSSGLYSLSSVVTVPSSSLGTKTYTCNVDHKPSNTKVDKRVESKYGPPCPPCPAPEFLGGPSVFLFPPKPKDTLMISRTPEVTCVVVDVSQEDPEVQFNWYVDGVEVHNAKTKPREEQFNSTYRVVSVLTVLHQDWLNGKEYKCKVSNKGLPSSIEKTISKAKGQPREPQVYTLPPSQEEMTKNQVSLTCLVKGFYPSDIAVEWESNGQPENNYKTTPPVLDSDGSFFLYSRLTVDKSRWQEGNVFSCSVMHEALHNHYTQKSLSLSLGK
light: SYELTQPPSVSVSPGQTARITCSGDALTSKYVAWYQQKSGLAPLLVIYEDTRRPSGIPAKFSGSSSGSVATLTISGAHGDDEADYYCYSTDASGHQRVFGGGTKLTVLSQPKAAPSVTLFPPSSEELQANKATLVCLISDFYPGAVTVAWKADGSPVKAGVETTKPSKQSNNKYAASSYLSLTPEQWKSHRSYSCQVTHEGSTVEKTVAPTECS
notes: pH-dependent anti-C2 antibody from a phage display library; also called WT
Usually Kd stands for a measure of binding affinity in units of concentration. Consider B1, for which the values for the Kd in the experiment with human C2 E476A, with human C2 Y328A and in the experiment with human C2 N621A were 19.6 nM, 78.4 nM and 51.5 nM, respectively.

B2: RF16-214 (antibody, V domains shown)
VH: EVQLLESGGGLVQPGGSLRLSCAASGFTFSWYQMMWVRQAPGKGLEWVSRIYPSGGGTAYADSVKGRFTISRDNSKNTLYLQMNSLRAEDTAVYYCARDAGYGDNWGQGTLVTVSS
VL: QSALTQPPSVSVSPGQTASITCSGDKLGEKYASWYQQKAGQSPVMVIYQDRKRPSGIPERFSGSNSGNTATLTISGTQAMDEADYYCQAWDTRAVVFGGGTKLTVLG
Molecule B2 gave a Fold diff with human C2 T442A of 2 fold.
